Experimental data reported in the nanobody polyreactivity screen of Harvey et al. (2022).

Assay: yeast display, Sf9 membrane polyspecificity reagent, FACS + sequencing; frameworks hold sequencing errors
Summary of the method: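 A synthetic nanobody library was expressed on Saccharomyces cerevisiae BJ5465 by galactose induction for 36–48 hours. The library was stained for 1 hour at 4 °C with 10% biotinylated, detergent-solubilized Sf9 membrane reagent and enriched with streptavidin microbeads before FACS. Low and high (top ~1%) gates were set on anti-HA fluorescence for expression and streptavidin fluorescence for reagent binding, and each polyreactivity label reflects the gate of origin.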
In the case of “QFQLVESGVGLVQAGGSLRLSCAASGRTSGSYAMGWYRQAPGKERELVAVITTSDGSTYYADSVKGRFTISRDNAKNTVYLQMNSLKPEDTEVYYCNVDYPNLWYDSYYYWGQGTEVTVSS”, the “polyreactivity (PSR sort gate)” value is reported as “low polyreactivity”.
For “QVQLVESGGGLVQAGGSLRLSFAASGRTFYSYAMGWYRQAPGKETQLVASITSTGSTYYADSVKGRFTISRDNAKNTVYLQMNSLKPEDTAVYYCAARRQPRYSQRSTYYYWGQGTQVTVSS”, the “polyreactivity (PSR sort gate)” value was “high polyreactivity”.
In the case of “QVQLVESGGGLVQAGGSLRLSCAPSGRTLYNYAMGWTRQAPGKERELVASITWSGGSTYYADSVKGRFTISRDNAKNTVYLQMTSLKPEDTAVYYCAAESSPGTFVRYGYRRYYYWGQGTQVTVSS”, the “polyreactivity (PSR sort gate)” value is reported as “low polyreactivity”.
For “QVQLVESGGGLVQAGGSLRLSCDASGSIFAYYAMRWYRPAPGKERELVAAISSRGGNTYYADSVKGRFTISRDYAKNTVYLQMNSLKPEDNAVYYCAAYSASYTFDYWGQGTQVTVSS”, the “polyreactivity (PSR sort gate)” value was “high polyreactivity”.
For “QVQLVESGGGLVQAGGSLRLICAASGSTFQSYAMGWYRQAPGKERELVAAISARGGTTYYADSVKGRFTISRDNAKNTVYLQMNSLKPEDTAVYYCAAVDHSVYSGSPDTGESDYWGQGTQVTVSS”, the “polyreactivity (PSR sort gate)” value was “low polyreactivity”.
With “QVQLVESVVGLVQEGGSLRFSCAASASTLDSNPIGWYRQAPGKEREVVAAITSGGSTYYADSVKGRFTISRDNAKNTVYLQMNSLKPEDSAVYYCATAWYLGRYRSLGYWGQGTQVTVSS” the “polyreactivity (PSR sort gate)” value was “high polyreactivity”.
For “QVQLVESGGGLVQAGGSLRLSCAASGFIFGLNAMGWYRPAPGKERELVAAIRSASSTNYADSVKGRFTISRDNAKNTVYLQMNSLKPEDTAVYYCAAEYVTYQQGFWGYDYWGQGTQVTVSS”, the “polyreactivity (PSR sort gate)” value was “low polyreactivity”.
With “QVQLVESGGGLVQAGGSLRLSCAASGRIFERNAMGGDRQAPGKEREFVAASSWSGGSTHYADSVKGRFTSSRDNAKNTVYVQMNSLKPEDTAVYFCAARRRKAGRPSDRYYYWGQGTQVTVSS” the “polyreactivity (PSR sort gate)” value was “high polyreactivity”.
With “QVLLVESGGGLVQAGGSLSLSCAASGRTFFNNAMGWYRQAPGQEREFVAAISRSGSSTYYAVSVKGRFTISRDNAKNTVYLQMNSLKPEHTAVYYCASYLYYYSAYGYWGQGTQVTVSS” the “polyreactivity (PSR sort gate)” value was “high polyreactivity”.
In the case of “QVQLVESGGGLVQAGGSLRLTCAASGRIFTRYAMGWYRQAPGKERELVAAISYGGGGTYYADSVKGRFTISRDNAKNTVYLQMNSLKPEVTSVYYCAADPGYYSWGSSQDDYWGQGTQVTVSS”, the “polyreactivity (PSR sort gate)” value is reported as “low polyreactivity”.
With “QVQLVESGGGLVQAGGRLRLSCADSGRTFPLYVMGWYRQAPGKERELVAAISARGGSTYYADSVKGRFTISRDNAKNTVYLQMNSLKPEDTAVYYCATLVTNGRYDSWGQGTQVTVSS” the “polyreactivity (PSR sort gate)” value was “high polyreactivity”.
For “QVQLVESGGGLVQAGGSLRLSCAASGLTFGSNTMGWYRQAPGKERELVAAITSNGGSTYYADSVKRRFTISRDYAKNTVYLQMNSLKPEDTAVYYCAARSYDGYYRYYYWGQGTQVTVSS”, the “polyreactivity (PSR sort gate)” value was “low polyreactivity”.
With “QVQLVESGGGLVQAGGSLRLSCAASGRTIRGYTMGWYRQSAGTERELVATITKRGGSTTYADSVKGRFTISRDNAKNTVYLQMNSLKPEDTAVYYCNKDTITSTLTPYTSWFGYWGQGTQVTVSS” the “polyreactivity (PSR sort gate)” value was “high polyreactivity”.
For “QVQRVESGGGLVQAGGSLRLSCAASGSIFAVYAMGWYRQAPGNERELVAAINRSGDSTYFADSVKGRFTISRDNAKNTVYLQMKSLKPEDTAVYYCAADWYWWYTRSWVDYWGQGTQVTVSS”, the “polyreactivity (PSR sort gate)” value was “high polyreactivity”.
For “QVQLVESGGGLVQAGGSHRLSCAASGSIFYKNAMGWYRQAPGKERELVAAITKRGGTTYYADSVKGRFTISRDNAKNTVYLQMNSLKPEDTAVYYCAKYLGPASIVRYEYWGQGTQVTVSS”, the “polyreactivity (PSR sort gate)” value was “high polyreactivity”.
In the case of “QVQLVESGGGLVQAGGSLRLSCPDSGFIFYLYDMGWYRQAPGKEREVVAAITDRGGSTYYADSVKGRFTITRDNAKITVYLQLKSLKPEDTAVYSCAAASSAIDSSVTMDYWGQGTQVTVSS”, the “polyreactivity (PSR sort gate)” value is reported as “low polyreactivity”.
With “QVQLVESGRGLVQAGGSLRLSCASSGRIFARNAMGWYRKAPGQEREFVAAITFSGGSTYYAESVKGRFTISRDNAKNTVYLQMNSLKPEDTAVYYCAARSFDDWGQGTQVTVSS” the “polyreactivity (PSR sort gate)” value was “high polyreactivity”.
With “QVQLVESGGGLVQAGGSLRLSCAASGNTLYRNALGWYRQAPGKERELVAAIRLSGGSTYYADSVKGRFTISRDNAKNTVYLQMNSLKPEDTAVYYCAVRIRYYTGFYSWGQGTQVTVSS” the “polyreactivity (PSR sort gate)” value was “high polyreactivity”.
With “QVQLVESGGGLVQAGGSLRLKCAASGSTFRPYAMGWYRQAPGKERELVARITGSGDSTYYADSVKGRFTISRDNAKITVYLQINSLKPEDNAVYYCAREFDYSLSGFDYWGQGTQVTVSS” the “polyreactivity (PSR sort gate)” value was “low polyreactivity”.
For “QVQLVESGGGLVQAGGSLRLSCAASGRIFHRYVMGWYRQAPGKERELVAAISSGTGSTYYADSVKGRFTISRDTAKNTVYLLMNSLIPEDTAVYYCNAAPGYTSVTYDYWGQGTQVTVSS”, the “polyreactivity (PSR sort gate)” value was “high polyreactivity”.
In the case of “QVQIVESWGGLVQAGGSLRLSCDASGSIFTNANGWYRQAPGKERELVAAISSSGGSTYYADSVKGRFTISRDNAKNTVYLQMNSLKPEDTAVYYCAADHYGGRDYWGQGTQVTVSS”, the “polyreactivity (PSR sort gate)” value is reported as “low polyreactivity”.
For “QVQLVESGGGLVQAGGSLRLSCAASGSILKSYAMGWYRQAPGKERELVAAITYRDGSTYYADSVKGRFTISRDNAKNTVYLQMNSLKPEDTAVYYCAAEPSWWNVFYPGYNYWGQGTQVTVSA”, the “polyreactivity (PSR sort gate)” value was “high polyreactivity”.
In the case of “QVQLVESGGGLVQAGGSLRLSCAASGFTFDYYAMGWYRQAPGKERELVAAISVSDSSTYYADSVKGRFTISRDNAKNTGDLQMNSLKPEDTAVYYCAAEYYVGFTYRYEYWGQGTQVTVSS”, the “polyreactivity (PSR sort gate)” value is reported as “low polyreactivity”.
With “QVQLVESGGGLVQAGGSLRLSCAASGSTFTPYAIGWYRQAPGKERELVAAIRRGGSTNYADSVKGRFTISRDNAKNTVYLQMNSLKPEDTAVYYCAATKRRFVKFDYWGQGTQVTVSS” the “polyreactivity (PSR sort gate)” value was “low polyreactivity”.
For “QVQLVESGRGLVQAGGSLRLSCAASGFTFAGYAMGWYRQATGKERELVAAITWSGGRTYYADSVKGRFTISRDNAKNTVYLQMKSLKPEDTAVYYCAAASGRSRYEYWGQGTQVTVSS”, the “polyreactivity (PSR sort gate)” value was “high polyreactivity”.
With “QVQLVESGGGLVQAGGSLRLSCAASGRTLGKNAMGWYRQAPGKEREFVAAISRSGSRTYYADSVKGRFTISRDNEKYTVYLQMNSLKPEDTAVYYCAADGSGHSQRYDYWGQGTQVTVSS” the “polyreactivity (PSR sort gate)” value was “high polyreactivity”.
With “QVQLVESGGGLVQAGGSLRLSCAASGSIFGYYAMGWYRPAPGKERELVAAISGSAGTTYYADSVKGRFTISRDNAKNTVYLQMNSLKPEDTAVYYCAKYYPYIQADYGYDYWGQGTQVTVSS” the “polyreactivity (PSR sort gate)” value was “low polyreactivity”.
In the case of “QVQLVESGGGLVQAGGSLRLSCAASGSIIVVYAMGWSRQAPGKERELVAAISWGIGSTYYADSVKGRFTISRDNAKNTVYLLMNILKPEETAVYYCAAVTDIVLYDYWGQGTQVTVSS”, the “polyreactivity (PSR sort gate)” value is reported as “low polyreactivity”.
In the case of “QVQLVESGGGLVLAGGSLRLSCAASGSILYYNAMGWYRQAPVKERELVAAITLDGASTYYSDSVKGLFTISRDNAKNTVYLQMNSLKPEDTAGYYCAADYAYWLSGYDYWGQGSQVTVSS”, the “polyreactivity (PSR sort gate)” value is reported as “low polyreactivity”.
For “QVQLVESGGGLVQAGGSLRLSCAASGFTFYKYALGWYRQAPGKERELVAAISNSGGSTYYADSVKGRFTISRDNAKNTVYLQMNCLKPEDTAVYYCAKLSDSITLYGYWGQGTQVNVSS”, the “polyreactivity (PSR sort gate)” value was “high polyreactivity”.
In the case of “QVQLVESGGGLVQAGGSLRLICAASGSTFGEYAMGWYRQAHGKERELVAVITSDDNTYYADSVKGRFTISRDNAKNTVYLQMNSLKPEDTAVYYCAARGYVLARSQQWRREYYWGQGTQVTVSS”, the “polyreactivity (PSR sort gate)” value is reported as “high polyreactivity”.
In the case of “QVQLVESGGGLVQAGGSLRLSCAASGRIFGVYGMGWYRQAPGKERELVAAITISGRTNYADSVKGRFTISRDNAKNTVYLQMNSLKREDTAVYYCAAGGQARHDYWGQGTQVTVSS”, the “polyreactivity (PSR sort gate)” value is reported as “low polyreactivity”.
For “QVQLVESGGRLVQAGGSLRLSCAASGRTFSFYAMGWYRQAPGQERELVAGIDWDDGSTSYADSVKGRFTISRDNAKNSVYLQMNSLKPEDTAVYYCAADIGYDDYNDYDYWGQGTQVTVSS”, the “polyreactivity (PSR sort gate)” value was “low polyreactivity”.
For “QVQLVESGGGLDQAGGSLRLSCAASGSIFRYYVMGWYRQAPGKERELVAAISWSGGTTYYADSVKGRFTISRDNAKNTVYLQMNSLKPEDTAVYYCAAKGPLGYYHATDYHDYWGQGTQVTVSS”, the “polyreactivity (PSR sort gate)” value was “high polyreactivity”.
In the case of “QVQLVDSGGGLVLAGGSLRLSCAASGRTFAYYVMGWYREAPGKERELVAAISGRGGRTNYADSVKGRFTISRDNANNTVFLQMNSLKPEDTAVYYFAADLKLGTFNYWGQGTQVTVSS”, the “polyreactivity (PSR sort gate)” value is reported as “high polyreactivity”.
For “QVQLVESGGGLVQAGGSLRLSCAASGSTFYLNVMGWYRQAPGKERELVAAISSGDGSTYYADSVKGRFTISRDNAKNTVYLQMNSLKPEDTAVYYCAAEPDTEVDYDYWGQGTQVTVSS”, the “polyreactivity (PSR sort gate)” value was “low polyreactivity”.
In the case of “QVQLVESGGGLVQAGGSLRLTCAASGSTFSDYAMGWNRQAHGKERELVAGITGGGGTYYADSVKGRFTISRDNAKNTVYLQMNSLKPEDTALYYCAAGRRHGLGYWGQGTLVTVSS”, the “polyreactivity (PSR sort gate)” value is reported as “low polyreactivity”.
For “QVQLVESGGGLVQAGGSLRLSCAASGSIFGWYVMGWYRQEAGKERELVAANSSVGSTYYADSVKGRFTISRDNAKNTVYLQMNSLKPEDTAVYYCAKLRYPYLFWDDSEYWGQGTQVTVSS”, the “polyreactivity (PSR sort gate)” value was “low polyreactivity”.
With “QVQLVESGGGLVQAGGSLRLSCAASGSIFLIYAMGGYRPAPGKERELVAGINWSGSRTYYADSVKGRFTISRDNAKNTVYLQMNSLKPEDTAVYYCAARVRRPLYSAYDSWGQGTQVTVSS” the “polyreactivity (PSR sort gate)” value was “low polyreactivity”.
With “QVQLVDSGGGLVQAGGSLRLSCAASGIIFWRYAMGWYRQAPGKERELVASISSSGGRTYYADSVKGRFTISRDNAKNTVYLQMNSLKPEDTAVYYCAARGPYGYDLLYYWGQGTQVTVSS” the “polyreactivity (PSR sort gate)” value was “high polyreactivity”.
For “QVQLVESGGGLVQAGGSLRLSCAASGRIFYYNTMGWYRQAPGKERELVAAITTNGGSTYYADSVKGRFTISRDNAKNTVYLQMNSPKPEDTAVYYCNRDRYPYYYAYNYWGQGTQVTVSS”, the “polyreactivity (PSR sort gate)” value was “low polyreactivity”.
In the case of “QVQLVESGGGLVQAGGSLRLSCAASGSIFSFYAMGWYRQAPGKEREFVAAITISDDSTYYADTVKGRFTISRDNAKNTVYLQMNSLNPEDTAVYYCNDRYLSWYFKYLYDYWGQGTQVTVSS”, the “polyreactivity (PSR sort gate)” value is reported as “low polyreactivity”.
With “QVQLVESGGGLVQAGGSLRLSCAASGSTFQRYAMGWYRQAPGKERELVAAITWSGGSTYYADSVKGRFTISRDNAKNTGYLQMNSLKPEDTAVYYGAARSVRYGFGYWGQGTQVTVSS” the “polyreactivity (PSR sort gate)” value was “high polyreactivity”.
